Data published in patent US20200129630A1, “METHODS FOR TREATING CANCER” (BicycleRD Limited, priority 2018, published 2020).
Numbered stars: 1 amine (or outer) side, 2 acyl side, 3 side chain; on linkers, the order of the positions; unused ones are H or OH. Bridge positions count the residues as written; N and C are the ends. Square brackets hold non-standard residues; d marks the D form. Peptide text beside a SMILES is read from it. * marks the point of attachment. X1 = COc1cc2cc(c1Cl)N(C)C(=O)C[C@H](OC(=O)[C@H](C)N(C)C(=O)CCSSC(C)CCC(=O)*)[C@]1(C)O[C@H]1[C@H](C)[C@@H]1C[C@@](O)(NC(=O)O1)[C@H](OC)/C=C/C=C(\C)C2; 1Nal = N[C@@H](Cc1cccc2ccccc12)C(=O)O; TBMB = c1c(C[*:1])cc(C[*:3])cc1C[*:2]; Tle = CC(C)(C)[C@H](N)C(=O)O; βAla = NCCC(=O)O; Sar = CNCC(=O)O

Key:
advanced solid tumors = test: Phase I/IIa trial of BT1718 in patients with advanced solid tumors: safety and efficacy; assay type: in vivo
Excerpt: This is a multi-center, FIH, Phase I/IIa, open label dose escalation trial with an expansion phase, in patients with advanced solid tumors.
A DLT is defined as a probably or highly probably drug-related AE occurring during Cycle 1 (i.e. the first 28 days) which fulfils one or more of the following criteria, despite appropriate supportive clinical management (however, all clinically significant toxicities will be considered in dose review decisions and the determination of the Phase II dose): • Neutropenia Grade 4 (absolute neutrophil count [ANC]<0.5×10^9/L) for ≥seven days *see note; • Febrile neutropenia with Grade 3 or 4 neutropenia ANC <1.0×10^9/L and a single temperature of […] or a sustained temperature ≥38° C. for more than one hour); • Clinically significant infection (documented clinically or microbiologically) with Grade 3 or 4 neutropenia (ANC <1.0×10^9/L); • Thrombocytopenia Grade 4: a) for ≥five days *see note, or b) associated with active bleeding, or c) requiring platelet transfusion. • Grade 3 or 4 toxicity to organs other than the bone marrow, EXCLUDING: Grade 3 nausea; • Grade 3 or 4 vomiting in patients who have not received optimal treatment with anti-emetics; or • Grade 3 or 4 diarrhoea in patients who have not received optimal treatment with anti-diarrhoeals. • Transient, asymptomatic Grade 3 biochemical abnormalities if agreed by the Sponsor and the Study Team, including the Chief Investigator (CI). • Fatal event; • Any other related toxicity which leads to discontinuation of treatment in Cycle 1, or to a delay in dosing of >7 days (excluding where the delay is >7 days due to scheduling rather than a clinical decision); • Any other related toxicity that is greater than at baseline and is judged to be a DLT by the Sponsor, including the CI and Principal Investigators (PIs).
Definitions of disease status is in accordance with RECIST (Response Evaluation Criteria in Solid Tumors) 1.1, based on documentation of target and non-target lesions as specified in the BT1718 study protocol. All clinical measurements to assess response must be performed within one week of the first dose of BT1718.
An open label, first in human phase Ulla study of once-weekly (QW) and twice-weekly (BIW) dosing schedules in patients with advanced solid tumours was undertaken.
4-week cycle: 1 hour intravenous (IV) infusions for 3 weeks, followed by a 1 week break.

NCI-H292 = test: In vitro cytotoxicity (CellTiter-Glo) NCI-H292; assay type: cell-based; details: NCI-H292, NSCLC
Excerpt: Table 1 and Table 2 Notes: in general regression and stable disease correlated with the in vitro cytotoxicity and MT1-MMP expression. Female BALB/c mice n=3/group animals dosed twice per week except EBC-1 three per week. Tumor growth inhibition (TGI) (%)=[1−(Ti−T0)/(Vi−V0)]×100; Ti is the average tumor volume of a treatment group on a given day, TO is the average tumor volume of the treatment group on the day of treatment start, Vi is the average tumor volume of vehicle control group on the same day with Ti, and V0 is the average tumor volume of vehicle group on the day of treatment start. A one-way ANOVA was performed to compare tumor volume among groups, and when a significant F-statistics (a ratio of treatment variance to the error variance) was obtained, comparisons between groups were carried out with Games-Howell test. All data were analyzed using GraphPad Prism.* p<0.05, ** p<0.01, *** p<0.001. In vitro cytotoxicity was measured by CellTiter-Glo®, MT1-MMP membrane H score from immunohistochemistry staining, NM not measured. Tumor size on Day 1 of dosing.

SMILES: COc1cc2cc(c1Cl)N(C)C(=O)C[C@H](OC(=O)[C@H](C)N(C)C(=O)CCSSC(C)CCC(=O)NCCC(=O)N(C)CC(=O)N(C)CC(=O)N(C)CC(=O)N(C)CC(=O)N(C)CC(=O)N(C)CC(=O)N(C)CC(=O)N(C)CC(=O)N(C)CC(=O)N(C)CC(=O)N[C@@H](C)C(=O)N[C@H]1CSCc3cc4cc(c3)CSC[C@H](NC(=O)[C@@H](C)NC(=O)[C@H](Cc3cccc5ccccc35)NC(=O)[C@H](CCC(=O)O)NC(=O)[C@H](CC(N)=O)NC(=O)[C@@H](C)NC1=O)C(=O)N[C@@H](CCC(=O)O)C(=O)N[C@@H](CC(=O)O)C(=O)N[C@@H](Cc1ccccc1)C(=O)N[C@@H](Cc1ccc(O)cc1)C(=O)N[C@@H](CC(=O)O)C(=O)N[C@@H](C(C)(C)C)C(=O)N[C@H](C(N)=O)CSC4)[C@]1(C)O[C@H]1[C@H](C)[C@@H]1C[C@@](O)(NC(=O)O1)[C@H](OC)/C=C/C=C(\C)C2 (stereo partly drawn) [BT1718] ({X1-βAla}-[Sar][Sar][Sar][Sar][Sar][Sar][Sar][Sar][Sar][Sar]AC[dA]NE[1Nal][dA]CEDFYD[Tle]C-NH2; linker 12-18-25 via TBMB (inferred))
- DLTs (advanced solid tumors; 9.6 mg/m^2 BIW (cohort 5)): 2×DLTs (GGT, fatigue) and increased GGT (grade 4) and fatigue (grade 3)
- Drug-related Alanine aminotransferase increased, number of patients, n = 28 (frequency) (advanced solid tumors; human, in vivo): 8 (28.6%)
- Drug-related Anaemia, number of patients, n = 28 (frequency) (advanced solid tumors; human, in vivo): 7 (25.0%)
- Drug-related Aspartate aminotransferase increased, number of patients, n = 28 (frequency) (advanced solid tumors; human, in vivo): 9 (32.1%)
- Drug-related Blood alkaline phosphatase increased, number of patients, n = 28 (frequency) (advanced solid tumors; human, in vivo): 5 (17.9%)
- Drug-related Decreased appetite, number of patients, n = 28 (frequency) (advanced solid tumors; human, in vivo): 9 (32.1%)
- Drug-related Diarrhea, number of patients, n = 28 (frequency) (advanced solid tumors; human, in vivo): 10 (35.7%)
- Drug-related Fatigue, number of patients, n = 28 (frequency) (advanced solid tumors; human, in vivo): 9 (32.1%)
- Drug-related Gamma-glutamyltransferase increased, number of patients, n = 28 (frequency) (advanced solid tumors; human, in vivo): 5 (17.9%)
- Drug-related Lethargy, number of patients, n = 28 (frequency) (advanced solid tumors; human, in vivo): 6 (21.4%)
- Drug-related Nausea, number of patients, n = 28 (frequency) (advanced solid tumors; human, in vivo): 12 (42.9%)
- Drug-related Neuropathy peripheral, number of patients, n = 28 (frequency) (advanced solid tumors; human, in vivo): 9 (32.1%)
- Drug-related Vomiting, number of patients, n = 28 (frequency) (advanced solid tumors; human, in vivo): 9 (32.1%)
- Grade 1-2 related peripheral neuropathy (advanced solid tumors; human, in vivo): occurred more commonly with increasing dose
- RP2D for twice weekly dosing (advanced solid tumors; human, in vivo): 7.2 mg/m^2
- patients with related grade 1-3 gastrointestinal disorders (advanced solid tumors; including nausea, diarrhea and vomiting): 18/28
- tolerability (advanced solid tumors; once weekly dosing, dose levels tested): tolerable
- IC50 (NCI-H292): 11.6 nM
